Experimental data from article PMC5608357, “Identification of LAG3 high affinity aptamers by HT-SELEX and Conserved Motif Accumulation (CMA)”.

B1: LAG3 Apt5 (structured_RNA)
RNA: GGGAGAGAGAUAUAAGGGUCUUGCCCAUCGACAAUAGAGCCCAGUCGCUGCCCAUUACCAAAUUCUCUCC
modifications: 2'-F-U, 2'-F-C
B2: LAG3 Apt2 (structured_RNA)
RNA: GGGAGAGAGAUAUAAGGGUCUUGCCUGAUGGAGUUGGAGAGGACCAUCACCCAUUACCAAAUUCUCUCCC
modifications: 2'-F-U, 2'-F-C
B3: LAG3 Apt4 (structured_RNA)
RNA: GGGAGAGAGAUAUAAGGGACCGAAUCUGGUUAAUCUGCCUCACGUUAGGCCCAUUACCAAAUUCUCUCCC
modifications: 2'-F-U, 2'-F-C
B4: LAG3 Apt1 (structured_RNA)
RNA: GGGAGAGAGAUAUAAGGGCCUCCUGAUACCCGCUGCUAUCUGGACCGAUCCCAUUACCAAAUUCUCUCCC
modifications: 2'-F-U, 2'-F-C
B5: LAG3 Apt1, biotinylated (structured_RNA)
RNA: B4 RNA
modifications: 2'-F-U, 2'-F-C

Assays:
LAG3-Fc (rmLAG3-Fc) [1] = target: T1, LAG3-Fc (rmLAG3-Fc) (mouse, UniProt Q61790 24-442); experiment: filter binding; 2 mM Ca2+; Filter binding: 20 mM HEPES pH 7.4, 150 mM NaCl, 2 mM CaCl2, 37 C, 30 min; SPR: PBS, 0.005% Tween 20, pH 7.4, temperature not stated; settings: protein: recombinant; tags: human IgG2-Fc fusion; chain copies: 2; label: 32P (alpha-ATP)
T1 sequence (Q61790 24-442): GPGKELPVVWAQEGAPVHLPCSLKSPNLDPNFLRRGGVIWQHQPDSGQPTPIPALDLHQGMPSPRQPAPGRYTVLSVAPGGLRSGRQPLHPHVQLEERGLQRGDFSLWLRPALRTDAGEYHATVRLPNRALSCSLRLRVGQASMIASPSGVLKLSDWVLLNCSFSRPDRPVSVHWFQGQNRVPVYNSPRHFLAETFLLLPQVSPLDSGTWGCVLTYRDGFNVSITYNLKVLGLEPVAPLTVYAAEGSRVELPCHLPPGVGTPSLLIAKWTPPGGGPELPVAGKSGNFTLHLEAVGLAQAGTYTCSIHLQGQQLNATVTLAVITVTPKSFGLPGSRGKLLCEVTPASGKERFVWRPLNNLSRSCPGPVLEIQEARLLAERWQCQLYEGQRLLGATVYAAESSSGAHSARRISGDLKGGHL

LAG3-Fc (rmLAG3-Fc) [2] = target: T1, LAG3-Fc (rmLAG3-Fc); experiment: SPR; apparent Kd from equilibrium RU; printed kon 1x10^3, koff <2.1x10^-4 s-1 do not match it; Filter binding: 20 mM HEPES pH 7.4, 150 mM NaCl, 2 mM CaCl2, 37 C, 30 min; SPR: PBS, 0.005% Tween 20, pH 7.4, temperature not stated; settings: protein: recombinant; tags: human IgG2-Fc fusion; chain copies: 2

Binder	Kd (LAG3-Fc (rmLAG3-Fc) [1]) [nM]	Kd (LAG3-Fc (rmLAG3-Fc) [2]) [nM]
B1	200	
B2	50	
B3	100	
B4	20	
B5		2.7
